Source: paper PMC10613257 (2023)

Target: insulin-like growth factor binding protein 5 (IGFBP5), full length, wild type (UniProt P24593 21-272, labelled with FAM-maleimide, 6-isomer after reduction with TCEP (in the fluorescence polarisation assay))
Assay: FP

Sequence of insulin-like growth factor binding protein 5 (IGFBP5), full length, wild type (P24593 21-272): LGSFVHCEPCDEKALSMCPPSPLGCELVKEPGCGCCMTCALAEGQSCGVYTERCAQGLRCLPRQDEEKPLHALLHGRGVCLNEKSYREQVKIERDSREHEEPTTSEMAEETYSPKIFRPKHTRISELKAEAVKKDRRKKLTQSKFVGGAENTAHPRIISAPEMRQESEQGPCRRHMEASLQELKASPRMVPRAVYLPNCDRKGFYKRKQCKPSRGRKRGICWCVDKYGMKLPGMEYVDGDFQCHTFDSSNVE

B1: PAPP-A E483A (catalytically inactive) (enzyme)
chain: REARGATEEPSPPSRALYFSGRGEQLRLRADLELPRDAFTLQVWLRAEGGQRSPAVITGLYDKCSYISRDRGWVVGIHTISDQDNKDPRYFFSLKTDRARQVTTINAHRSYLPGQWVYLAATYDGQFMKLYVNGAQVATSGEQVGGIFSPLTQKCKVLMLGGSALNHNYRGYIEHFSLWKVARTQREILSDMETHGAHTALPQLLLQENWDNVKHAWSPMKDGSSPKVEFSNAHGFLLDTSLEPPLCGQTLCDNTEVIASYNQLSSFRQPKVVRYRVVNLYEDDHKNPTVTREQVDFQHHQLAEAFKQYNISWELDVLEVSNSSLRRRLILANCDISKIGDENCDPECNHTLTGHDGGDCRHLRHPAFVKKQHNGVCDMDCNYERFNFDGGECCDPEITNVTQTCFDPDSPHRAYLDVNELKNILKLDGSTHLNIFFAKSSEEELAGVATWPWDKEALMHLGGIVLNPSFYGMPGHTHTMIHAIGHSLGLYHVFRGISEIQSCSDPCMETEPSFETGDLCNDTNPAPKHKSCGDPGPGNDTCGFHSFFNTPYNNFMSYADDDCTDSFTPNQVARMHCYLDLVYQGWQPSRKPAPVALAPQVLGHTTDSVTLEWFPPIDGHFFERELGSACHLCLEGRILVQYASNASSPMPCSPSGHWSPREAEGHPDVEQPCKSSVRTWSPNSAVNPHTVPPACPEPQGCYLELEFLYPLVPESLTIWVTFVSTDWDSSGAVNDIKLLAVSGKNISLGPQNVFCDVPLTIRLWDVGEEVYGIQIYTLDEHLEIDAAMLTSTADTPLCLQCKPLKYKVVRDPPLQMDVASILHLNRKFVDMDLNLGSVYQYWVITISGTEESEPSPAVTYIHGSGYCGDGIIQKDQGEQCDDMNKINGDGCSLFCRQEVSFNCIDEPSRCYFHDGDGVCEEFEQKTSIKDCGVYTPQGFLDQWASNASVSHQDQQCPGWVIIGQPAASQVCRTKVIDLSEGISQHAWYPCTISYPYSQLAQTTFWLRAYFSQPMVAAAVIVHLVTDGTYYGDQKQETISVQLLDTKDQSHDLGLHVLSCRNNPLIIPVVHDLSQPFYHSQAVRVSFSSPLVAISGVALRSFDNFDPVTLSSCQRGETYSPAEQSCVHFACEKTDCPELAVENASLNCSSSDRYHGAQCTVSCRTGYVLQIRRDDELIKSQTGPSVTVTCTEGKWNKQVACEPVDCSIPDHHQVYAASFSCPEGTTFGSQCSFQCRHPAQLKGNNSLLTCMEDGLWSFPEALCELMCLAPPPVPNADLQTARCRENKHKVGSFCKYKCKPGYHVPGSSRKSKKRAFKTQCTQDGSWQEGACVPVTCDPPPPKFHGLYQCTNGFQFNSECRIKCEDSDASQGLGSNVIHCRKDGTWNGSFHVCQEMQGQCSVPNELNSNLKLQCPDGYAIGSECATSCLDHNSESIILPMNVTVRDIPHWLNPTRVERVVCTAGLKWYPHPALIHCVKGCEPFMGDNYCDAINNRAFCNYDGGDCCTSTVKTKKVTPFPMSCDLQGDCACRDPQAQEHSRKDLRGYSHG
  Kd: 237 nM
